The values that follow come from paper PMC9168451.

Experiment [1] addresses AbMtlD H434C_Y469C double-cysteine variant (Acinetobacter baumannii).
The target in experiment [2] is AbMtlD Y427C_A466C double-cysteine variant (Acinetobacter baumannii).
Experiment [3] deals with Acinetobacter baumannii bifunctional mannitol-1-phosphate dehydrogenase/phosphatase (AbMtlD), wild type (Acinetobacter baumannii). The experiment is described as follows: SEC-MALS. In general terms: SEC sorts molecules by how far they enter the pores of the column.

As for “AbMtlD H434C_Y469C double-cysteine variant (from UniProt A0ABX6CFK3 1-715) (enzyme)”, the F6P reduction activity, kcat/Km for F6P (wild type: 2.388) in experiment [1] worked out at 149000 M⁻¹ s⁻¹.
In experiment [2], “AbMtlD Y427C_A466C double-cysteine variant (from UniProt A0ABX6CFK3 1-715) (enzyme)” yielded an F6P reduction activity, kcat/Km for F6P (wild type: 2.388) of 139000 M⁻¹ s⁻¹.
Usually stoichiometry N stands for a count of units in the complex or per binding partner. In the case of “Acinetobacter baumannii bifunctional mannitol-1-phosphate dehydrogenase/phosphatase (AbMtlD), wild type (from UniProt A0ABX6CFK3 1-715) (enzyme)”, in experiment [3], the stoichiometry N worked out at 2.
